Data: paper PMC8985661
pKd: −log10 of the molar value.

What was measured:
[1] = molecular target: microtubules (MTs; α-tubulin/β-tubulin) (UniProt P02554); experiment: other fluorescence titration; fluorescently labeled MAP7 on MTs at different concentrations, fluorescence intensity fit to the Hill equation; 150 mM KAc
[2] = molecular target: microtubules (MTs; α-tubulin/β-tubulin) (UniProt P02554)

pKd [1]: 6.95 | half-max inhibition constant of the run frequency of dynein-dynactin-BicDR1 (DDR) on MTs against MAP7 concentration (blocks dynein on MTs); 150 mM KAc [2]: 10 nM
Substance: full-length (FL) MAP7 (from UniProt Q14244 1-749) (natural protein)
